Source: patent US20260242515A1 (DUALITY BIOLOGICS SHANGHAI, published 2026)
Substitutions are numbered along the chain they refer to. One block for each binder: values may come before it.

What was measured:
[1] = target: T1, Monkey ADAM9 protein (ACRO, Cat. No. AD9-C52H7) (cynomolgus monkey, UniProt A0A2K5X4X8 29-697); assay: SPR (Biacore 8K), antibody captured by anti-human Fc on CM5, monkey ADAM9 as analyte
T1 construct: Bought protein; also called cynomolgus ADAM9 protein; monkey ADAM9 antigen
T1 sequence: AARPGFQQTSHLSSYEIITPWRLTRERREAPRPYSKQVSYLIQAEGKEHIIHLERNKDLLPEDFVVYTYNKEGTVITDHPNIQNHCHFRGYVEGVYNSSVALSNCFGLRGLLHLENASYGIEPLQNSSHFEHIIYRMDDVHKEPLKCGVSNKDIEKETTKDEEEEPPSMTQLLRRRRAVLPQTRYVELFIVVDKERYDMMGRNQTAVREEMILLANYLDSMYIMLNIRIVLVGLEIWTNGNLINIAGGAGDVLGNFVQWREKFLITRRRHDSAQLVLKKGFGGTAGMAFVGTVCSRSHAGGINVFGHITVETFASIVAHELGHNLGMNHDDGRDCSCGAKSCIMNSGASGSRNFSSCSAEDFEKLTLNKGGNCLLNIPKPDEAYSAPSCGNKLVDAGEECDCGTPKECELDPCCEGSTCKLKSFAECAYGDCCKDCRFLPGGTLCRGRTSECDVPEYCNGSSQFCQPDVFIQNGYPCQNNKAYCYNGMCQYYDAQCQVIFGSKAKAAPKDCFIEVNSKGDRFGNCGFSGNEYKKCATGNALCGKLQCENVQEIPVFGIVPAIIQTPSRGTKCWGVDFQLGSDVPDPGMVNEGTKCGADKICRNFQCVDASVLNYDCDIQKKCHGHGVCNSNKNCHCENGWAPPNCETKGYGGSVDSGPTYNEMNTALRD
Protocol: Chip preparation: The mouse anti-human IgG (Fc) antibody (Cat. No. 29234600, Cytiva) was diluted to 25 μg/mL in immobilization buffer (10 mM sodium acetate, pH 5.0), specifically by adding 950 μL of the immobilization buffer to 50 μL of the mouse anti-human IgG (Fc) antibody. The dilution was used for immobilization in eight channels. First, the surface of the CM5 chip was activated with 400 mM EDC and 100 mM NHS at a flow rate of 10 μL/min for 420 seconds. Then, 25 μg/mL of the mouse anti-human IgG (Fc) antibody was injected into the test channels at a flow rate of 10 μL/min for approximately 360 seconds, with the level of immobilization at approximately 7000 to 14000 RU. Finally, the chip was blocked with 1 M ethanolamine at a flow rate of 10 μL/min for 420 seconds. The reference channels underwent the same procedures as the test channels.
Ligand capture: Antibodies Ab10, Ab15, Ab16, and hMAB-A (2I.2) were diluted to 4 μg/mL in running buffer (containing 10 mM N-(2-hydroxyethyl)piperazine-N-2-ethanesulfonic acid (HEPES), 150 mM sodium chloride (NaCl), 3 mM ethylenediaminetetraacetic acid (EDTA), 0.005% Tween-20, pH adjusted to 7.4) and injected into the test channels for human IgG (Fc) capture at a flow rate of 10 μL/min at approximately 200 RU. No ligand capture was performed in the reference channels.
Analyte multi-cycle analysis: Human and cynomolgus ADAM9 proteins (human ADAM9 protein purchased from ACRO, Cat. No. AD9-H52H7; monkey ADAM9 protein purchased from ACRO, Cat. No. AD9-C52H7) were diluted 2-fold in running buffer (Table 10). The diluted human or cynomolgus ADAM9 protein was sequentially injected into the test channels and the reference channels at a flow rate of 30 μL/min, with corresponding association and dissociation times. Both the association and dissociation steps were performed in the running buffer. After each concentration analysis, the chip was regenerated with 3 M magnesium chloride at a flow rate of 20 μL/min for 30 seconds to wash away the ligand and any undissociated analyte. For the next concentration analysis, the test channels required re-capture of the same amount of ligand.

[2] = target: T2, ADAM9 on human tumor cells (LS174T, HepG2, Calu-3, Colo205) (human, UniProt Q13443 29-819); assay: cell-based or functional assay
T2 sequence (looked up): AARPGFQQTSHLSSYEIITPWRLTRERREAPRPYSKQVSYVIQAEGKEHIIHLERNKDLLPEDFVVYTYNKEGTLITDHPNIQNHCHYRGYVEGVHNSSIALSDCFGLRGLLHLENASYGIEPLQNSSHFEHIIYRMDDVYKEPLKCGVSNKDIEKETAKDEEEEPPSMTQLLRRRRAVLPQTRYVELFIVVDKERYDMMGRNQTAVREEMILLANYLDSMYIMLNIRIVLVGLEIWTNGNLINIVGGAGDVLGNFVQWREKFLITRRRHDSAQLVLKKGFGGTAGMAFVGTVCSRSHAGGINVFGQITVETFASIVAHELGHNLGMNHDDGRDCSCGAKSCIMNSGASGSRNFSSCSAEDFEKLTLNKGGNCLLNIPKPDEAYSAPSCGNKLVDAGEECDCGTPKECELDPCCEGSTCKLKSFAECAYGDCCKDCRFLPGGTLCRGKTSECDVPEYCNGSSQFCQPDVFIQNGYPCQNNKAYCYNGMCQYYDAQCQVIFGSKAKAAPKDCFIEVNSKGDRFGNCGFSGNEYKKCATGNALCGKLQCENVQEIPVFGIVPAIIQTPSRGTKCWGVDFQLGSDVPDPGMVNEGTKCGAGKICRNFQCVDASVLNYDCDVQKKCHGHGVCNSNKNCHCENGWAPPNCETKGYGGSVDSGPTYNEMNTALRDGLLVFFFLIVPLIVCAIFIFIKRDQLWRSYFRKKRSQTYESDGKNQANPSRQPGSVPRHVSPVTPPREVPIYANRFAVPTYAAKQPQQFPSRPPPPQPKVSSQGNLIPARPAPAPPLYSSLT

- Kd [1]: 9.47 nM
- koff [1]: 0.000461 s⁻¹
- kon [1]: 48700 M⁻¹ s⁻¹
- EC50 for internalization [2]: 0.17 nM
- Maximum internalization rate (%) [2]: 81.8%
B1: Ab15 (antibody, human IgG1, kappa, V domains shown)
VH: QVQLQQPGAELKKPGASVKVSCKASGFTFPLYWMNWVRQRPGRGLEWIGRIIPIFGHTKYNEKFKDRATMTADESSSTAYMELSSLTSEDSAVYYCARGGYYYYPREGFLDYWGQGTSVTVSS
VL: DIVMTQSPDSLSVSPGERATINCRSSQSVDYSGDSYMNWYQQKPGQSPRLLIYAASDRESGVPDRFSGSGSGTDFTLKISNVEEEDAATYYCQQSREDPFTFGQGTRVEIKR
notes: Humanized anti-ADAM9 IgG1/kappa; also called Ab15-V (variable regions)

- Kd [1]: 8.61 nM
- koff [1]: 0.000528 s⁻¹
- kon [1]: 61300 M⁻¹ s⁻¹
- EC50 for internalization [2]: 0.12 nM
- Maximum internalization rate (%) [2]: 83.3%
B2: Ab16 (antibody, human IgG1, kappa, V domains shown)
VH: B1 VH with A9T, L11V, K12V, V20L, N35H, D66N, R67K, M70L, S84R, E89D
VL: B1 VL with D9A, T20S, N22S, N81R, A88G, R107K, E109D
notes: Humanized anti-ADAM9 IgG1/kappa; also called Ab16-V (variable regions)
